Reference: patent US20090018059

Assays:
Sox2 (Mus musculus) = Sox2 (Mus musculus) (UniProt P48432); details: ChIP-qPCR, undifferentiated mouse ESCs; 10-fold maximum after 3 days RA, none at 6 days
[1] = target: Oct4 (Pou5f1) (Mus musculus) (UniProt P20263); details: ChIP-qPCR, undifferentiated mouse ESCs; 10-fold maximum after 3 days RA, none at 6 days
SOX2 (Homo sapiens) = details: ChIP-qPCR, human HUES-6 ESCs
OCT4 (Homo sapiens) = details: ChIP-qPCR, human HUES-6 ESCs

Sox2 (Mus musculus), sequence (P48432 whole entry): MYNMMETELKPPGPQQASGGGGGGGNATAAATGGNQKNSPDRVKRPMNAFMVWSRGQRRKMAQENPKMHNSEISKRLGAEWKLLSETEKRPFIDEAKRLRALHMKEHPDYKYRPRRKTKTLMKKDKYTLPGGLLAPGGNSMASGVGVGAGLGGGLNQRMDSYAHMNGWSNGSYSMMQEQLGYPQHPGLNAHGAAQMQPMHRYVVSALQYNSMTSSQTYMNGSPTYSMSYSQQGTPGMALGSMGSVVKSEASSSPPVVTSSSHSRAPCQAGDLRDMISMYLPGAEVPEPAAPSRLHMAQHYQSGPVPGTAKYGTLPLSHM
Oct4 (Pou5f1) (Mus musculus), sequence (P20263 whole entry): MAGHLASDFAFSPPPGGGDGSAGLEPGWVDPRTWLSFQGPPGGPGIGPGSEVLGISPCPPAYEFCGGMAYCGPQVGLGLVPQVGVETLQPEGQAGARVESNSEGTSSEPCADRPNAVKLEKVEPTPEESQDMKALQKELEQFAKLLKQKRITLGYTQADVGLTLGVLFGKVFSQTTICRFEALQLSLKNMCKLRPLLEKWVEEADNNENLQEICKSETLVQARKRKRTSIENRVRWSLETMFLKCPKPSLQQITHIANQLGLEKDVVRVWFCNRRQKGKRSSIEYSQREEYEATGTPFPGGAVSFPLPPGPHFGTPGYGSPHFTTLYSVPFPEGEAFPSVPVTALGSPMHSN

| Substance | binding signal (fold enrichment) (Sox2 (Mus musculus)) | binding signal (fold enrichment) [1] | binding signal (fold enrichment) (SOX2 (Homo sapiens)) | binding signal (fold enrichment) (OCT4 (Homo sapiens)) |
| --- | --- | --- | --- | --- |
| mouse Nanog promoter oct-sox region (ChIP amplicon 2) | < 37 | < 43 |  |  |
| human NANOG promoter sox-oct region |  |  | 6 | 6 |
